Patent US20030119090

What was measured:
[1] = target: T1, Boc-Tyr-Thr(α-Man)-Val-OMe (Compound 10)
T1 chain: YTV

[2] = target: T2, Cbz-Thr(α-Man)-Val-Gly-Ala-NH2 (Compound 9)
T2 chain: TVGA

[3] = target: T3, Cbz-Thr(α-Man)-Val-OMe (Compound 7)
T3 chain: TV

[4] = target: T4, Cbz-Thr(αManα1,2Man)-Val-OMe (Compound 11)
T4 chain: TV

[5] = target: T5, Thr(α-Man)-Val-OMe (Compound 8)
T5 chain: TV

B1: recombinant α1,2-mannosyltransferase (soluble catalytic domain, protein sequence 31-442 of α1,2-ManT from S. cerevisiae, expressed from pManflag20 in the E. … (protein)
chain: RTQQYIPSSISAAFDFTSGSISPEQQVISEENDAKKLEQSALNSEASEDSEAMDEESKALKAAAEKADAPIDTKTTMDYITPSFANKAGKPKACYVTLVRNKELKGLLSSIKYVENKINKKFPYPWVFLNDEPFTEEFKEAVTKAVSSEVKFGILPKEHWSYPEWINQTKAAEIRADAATKYIYGGSESYRHMCRYQSGFFWRHELLEEYDWYWRVEPDIKLYCDINYDVFKWMQENEKVYGFTVSIHEYEVTIPTLWQTSMDFIKKNPEYLDENNLMSFLSNDNGKTYNLCHFWSNFEIANLNLWRSPAYREYFDTLDHQGGFFYERWGDAPVHSIAAALFLPKDKIHYFSDIGYHHPPYDNCPLDKEVYNSNNCECDQGNDFTFQGYSCGKEYYDAQGLVKPKNWKKFRE
[1]
  Km (acceptor), mannosyl transfer reaction: 0.7 mM
  Km, fold lower than that of Compound 7: This value is 10 times less than that of Compound 7
  Km, fold lower than that of ManαOMe (Compound 1): 80 times smaller than that of ManαOMe (Compound 1)
  Vrelative (ratio of Vmax, ManαOMe = 1.0), mannosyl transfer from GDP-Man to acceptor: 0.35
[2]
  Vrelative (ratio of Vmax, ManαOMe = 1.0), mannosyl transfer from GDP-Man to acceptor: 0.55
[3]
  Km (acceptor), mannosyl transfer reaction: 7.8 mM
  Vrelative (ratio of Vmax, ManαOMe = 1.0), mannosyl transfer from GDP-Man to acceptor: 0.71
[4]
  Km (acceptor), mannosyl transfer reaction: 26 mM
  Vrelative (ratio of Vmax, ManαOMe = 1.0), mannosyl transfer from GDP-Man to acceptor: 0.17
[5]
  Vrelative (ratio of Vmax, ManαOMe = 1.0), mannosyl transfer from GDP-Man to acceptor: 0.68
